Legend:
[1] = target: T1, PARP1-GFP (UniProt P09874 1-1014); test: affinity purification with mass spectrometry; GFP pull-down of PARP1-GFP or GFP-PARP2 from U2OS (FRT) WT cells, label-free proteomics with iBAQ quantification; cells unirradiated or UV-C-irradiated (20 J/m^2, 1 h); conditions: partners not purified
T1 construct: source: U2OS (FRT) WT, stably expressed (Flp-In, doxycycline-inducible), in lysate; not shown: GFP, C-terminal, kept

[2] = target: T2, GFP-PARP2 (UniProt Q9UGN5-2 1-570); test: as above; conditions: partners not purified
T2 construct: also called PARP2-GFP; source: U2OS (FRT) WT, stably expressed (Flp-In, doxycycline-inducible), in lysate; not shown: GFP, N-terminal, kept
T2 sequence (Q9UGN5 other isoform, or with tags, fused parts or gaps): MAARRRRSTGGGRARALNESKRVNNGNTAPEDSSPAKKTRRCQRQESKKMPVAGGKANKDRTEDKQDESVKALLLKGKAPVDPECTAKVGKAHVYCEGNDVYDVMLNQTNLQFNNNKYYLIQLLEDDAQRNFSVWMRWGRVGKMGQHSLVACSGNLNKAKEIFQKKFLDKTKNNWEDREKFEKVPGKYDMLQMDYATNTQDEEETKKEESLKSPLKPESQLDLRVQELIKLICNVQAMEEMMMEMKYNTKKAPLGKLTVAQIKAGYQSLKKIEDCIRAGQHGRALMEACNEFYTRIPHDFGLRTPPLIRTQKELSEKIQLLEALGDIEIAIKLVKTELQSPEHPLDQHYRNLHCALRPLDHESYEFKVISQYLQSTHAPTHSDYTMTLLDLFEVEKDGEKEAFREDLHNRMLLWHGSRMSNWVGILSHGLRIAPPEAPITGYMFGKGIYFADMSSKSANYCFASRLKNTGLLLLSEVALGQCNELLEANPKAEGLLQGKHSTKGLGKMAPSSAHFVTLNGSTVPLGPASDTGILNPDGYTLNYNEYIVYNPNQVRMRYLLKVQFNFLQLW

T1 sequence (P09874 whole entry): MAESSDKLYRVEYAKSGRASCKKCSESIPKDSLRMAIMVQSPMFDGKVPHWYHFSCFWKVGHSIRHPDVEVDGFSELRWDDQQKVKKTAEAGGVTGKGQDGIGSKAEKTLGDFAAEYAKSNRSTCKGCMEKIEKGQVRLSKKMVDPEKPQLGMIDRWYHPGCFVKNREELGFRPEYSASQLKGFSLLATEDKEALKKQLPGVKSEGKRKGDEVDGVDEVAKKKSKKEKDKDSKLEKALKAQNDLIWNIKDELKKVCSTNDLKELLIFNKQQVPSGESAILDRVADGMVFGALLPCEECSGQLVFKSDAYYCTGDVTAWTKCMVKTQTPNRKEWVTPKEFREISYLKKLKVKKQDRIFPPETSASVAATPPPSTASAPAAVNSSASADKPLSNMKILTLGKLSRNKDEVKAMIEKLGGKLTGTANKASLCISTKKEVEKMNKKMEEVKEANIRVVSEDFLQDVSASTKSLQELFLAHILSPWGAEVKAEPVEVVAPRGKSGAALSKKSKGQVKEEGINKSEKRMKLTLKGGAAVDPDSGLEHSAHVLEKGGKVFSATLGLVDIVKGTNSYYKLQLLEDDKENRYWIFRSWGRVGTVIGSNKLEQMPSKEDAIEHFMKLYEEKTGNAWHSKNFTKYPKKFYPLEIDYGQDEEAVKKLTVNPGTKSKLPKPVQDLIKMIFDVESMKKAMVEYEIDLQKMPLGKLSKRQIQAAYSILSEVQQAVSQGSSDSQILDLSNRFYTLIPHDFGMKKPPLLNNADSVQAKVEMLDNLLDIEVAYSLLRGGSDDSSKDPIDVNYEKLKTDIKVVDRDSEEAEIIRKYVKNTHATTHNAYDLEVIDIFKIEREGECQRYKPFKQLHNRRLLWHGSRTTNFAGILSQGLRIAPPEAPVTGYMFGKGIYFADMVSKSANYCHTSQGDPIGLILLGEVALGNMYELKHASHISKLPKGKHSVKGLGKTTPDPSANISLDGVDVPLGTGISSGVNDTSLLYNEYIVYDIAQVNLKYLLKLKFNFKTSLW

Binder | percent of the isolated bait molecules associated with the prey (iBAQ) [1] [%] | percent of the isolated bait molecules associated with the prey (iBAQ) [2] [%] | fold, fraction of bait molecules associated with XPC, GFP-PARP2 against PARP1-GFP (iBAQ) [2] [fold]
ALC1 (endogenous) (enzyme, human (endogenous in U2OS), UniProt Q86WJ1 1-897, looked up, ALC1 (CHD1L), endogenous in U2OS cells; also called poly-(ADP-ribose)-dependent chromatin remodeler ALC1; the remodeler; source: endogenous, U2OS (FRT) WT lysate) MERAGATSRGGQAPGFLLRLHTEGRAEAARVQEQDLRQWGLTGIHLRSYQLEGVNWLAQRFHCQNGCILGDEMGLGKTCQTIALFIYLAGRLNDEGPFLILCPLSVLSNWKEEMQRFAPGLSCVTYAGDKEERACLQQDLKQESRFHVLLTTYEICLKDASFLKSFPWSVLVVDEAHRLKNQSSLLHKTLSEFSVVFSLLLTGTPIQNSLQELYSLLSFVEPDLFSKEEVGDFIQRYQDIEKESESASELHKLLQPFLLRRVKAEVATELPKKTEVVIYHGMSALQKKYYKAILMKDLDAFENETAKKVKLQNILSQLRKCVDHPYLFDGVEPEPFEVGDHLTEASGKLHLLDKLLAFLYSGGHRVLLFSQMTQMLDILQDYMDYRGYSYERVDGSVRGEERHLAIKNFGQQPIFVFLLSTRAGGVGMNLTAADTVIFVDSDFNPQNDLQAAARAHRIGQNKSVKVIRLIGRDTVEEIVYRKAASKLQLTNMIIEGGHFTLGAQKPAADADLQLSEILKFGLDKLLASEGSTMDEIDLESILGETKDGQWVSDALPAAEGGSRDQEEGKNHMYLFEGKDYSKEPSKEDRKSFEQLVNLQKTLLEKASQEGRSLRNKGSVLIPGLVEGSTKRKRVLSPEELEDRQKKRQEAAAKRRRLIEEKKRQKEEAEHKKKMAWWESNNYQSFCLPSEESEPEDLENGEESSAELDYQDPDATSLKYVSGDVTHPQAGAEDALIVHCVDDSGHWGRGGLFTALEKRSAEPRKIYELAGKMKDLSLGGVLLFPVDDKESRNKGQDLLALIVAQHRDRSNVLSGIKMAALEEGLKKIFLAAKKKKASVHLPRIGHATKGFNWYGTERLIRKHLAARGIPTYIYYFPRSKSAVLHSQSSSSSSRQLVP | 0.07 | ~15 | 
XPC (endogenous) (natural protein, human (endogenous in U2OS), UniProt Q01831 1-940, looked up, XPC, endogenous in U2OS cells; source: endogenous, U2OS (FRT) WT lysate) MARKRAAGGEPRGRELRSQKSKAKSKARREEEEEDAFEDEKPPKKSLLSKVSQGKRKRGCSHPGGSADGPAKKKVAKVTVKSENLKVIKDEALSDGDDLRDFPSDLKKAHHLKRGATMNEDSNEEEEESENDWEEVEELSEPVLGDVRESTAFSRSLLPVKPVEIEIETPEQAKTRERSEKIKLEFETYLRRAMKRFNKGVHEDTHKVHLLCLLANGFYRNNICSQPDLHAIGLSIIPARFTRVLPRDVDTYYLSNLVKWFIGTFTVNAELSASEQDNLQTTLERRFAIYSARDDEELVHIFLLILRALQLLTRLVLSLQPIPLKSATAKGKKPSKERLTADPGGSSETSSQVLENHTKPKTSKGTKQEETFAKGTCRPSAKGKRNKGGRKKRSKPSSSEEDEGPGDKQEKATQRRPHGRERRVASRVSYKEESGSDEAGSGSDFELSSGEASDPSDEDSEPGPPKQRKAPAPQRTKAGSKSASRTHRGSHRKDPSLPAASSSSSSSKRGKKMCSDGEKAEKRSIAGIDQWLEVFCEQEEKWVCVDCVHGVVGQPLTCYKYATKPMTYVVGIDSDGWVRDVTQRYDPVWMTVTRKCRVDAEWWAETLRPYQSPFMDREKKEDLEFQAKHMDQPLPTAIGLYKNHPLYALKRHLLKYEAIYPETAAILGYCRGEAVYSRDCVHTLHSRDTWLKKARVVRLGEVPYKMVKGFSNRARKARLAEPQLREENDLGLFGYWQTEEYQPPVAVDGKVPRNEFGNVYLFLPSMMPIGCVQLNLPNLHRVARKLDIDCVQAITGFDFHGGYSHPVTDGYIVCEEFKDVLLTAWENEQAVIERKEKEKKEKRALGNWKLLAKGLLIRERLKRRYGPKSEAAAPHTDAGGGLSSDEEEGTSSQAEAARILAASWPQNREDEEKQKLKGGPKKTKREKKAAASHLFPFEQL |  |  | 10

Source: paper PMC9376112, “XPC–PARP complexes engage the chromatin remodeler ALC1 to catalyze global genome DNA damage repair” (Nature Communications, 2022)
